# From the supplement of paper PMC10567573
# B1: NCF4 (parent)
# chain: FGPDSKSSALACTLPTLPAKVYVG
# Variants of: B1
# Test: protein stability index of a GFP-peptide fusion (GPS, HEK-293T) (PSI 1-6); higher = more stable
# Settings: c terminus: a fixed tail appended
# 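Further: lentivirally expressed fusions sorted by FACS into six bins by GFP to DsRed ratio, PSI derived from sequencing read proportions per bin multiplied by bin number.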
row,Variant,protein stability index
1,D4M,2.19
2,D4N,1.84
3,D4P,2.23
4,D4Q,2.26
5,D4R,2.1
6,D4S,2.04
7,D4T,2.14
8,D4V,1.75
9,D4W,1.18
10,D4Y,1.8
11,S5A,2.34
12,S5C,1.8
13,S5D,3.16
14,S5E,3.13
15,S5H,2.36
16,S5I,2.41
17,S5K,2.28
18,S5L,2.12
19,S5M,1.89
20,S5N,2.65
21,S5P,2.75
22,S5Q,3.47
23,S5R,2.2
24,S5T,2.32

row,Variant,protein stability index
1,S5V,2.46
2,S5Y,1.51
3,K6A,1.95
4,K6C,2.02
5,K6D,3.17
6,K6E,2.54
7,K6F,1.53
8,K6G,2.48
9,K6H,2.29
10,K6I,1.95
11,K6L,1.63
12,K6M,2.89
13,K6N,2.8
14,K6P,2.33
15,K6Q,2.45
16,K6R,1.76
17,K6S,2.41
18,K6T,2.78
19,K6V,2.07
20,K6W,3.06
21,K6Y,1.43
22,S7A,1.9
23,S7C,1.69
24,S7D,2.9

row,Variant,protein stability index
1,S7E,2.72
2,S7F,2.9
3,S7G,2.37
4,S7H,1.57
5,S7I,1.56
6,S7K,2.35
7,S7L,2.07
8,S7M,2.25
9,S7N,2.23
10,S7P,1.97
11,S7Q,3.06
12,S7R,2.35
13,S7T,2.37
14,S7V,1.73
15,S7W,1.97
16,S7Y,1.06
17,S8A,2.32
18,S8C,2.44
19,S8D,2.7
20,S8E,3.36
21,S8F,2.86
22,S8G,2.77
23,S8H,1.67
24,S8I,2.44

row,Variant,protein stability index
1,S8K,1.85
2,S8L,1.98
3,S8M,2.08
4,S8N,2.32
5,S8P,2.22
6,S8Q,2.29
7,S8R,3.19
8,S8T,1.89
9,S8V,2.22
10,S8W,2.65
11,S8Y,4.4
12,A9C,1.74
13,A9D,3.18
14,A9E,3.67
15,A9G,1.67
16,A9H,2.23
17,A9I,1.86
18,A9K,1.89
19,A9L,1.11
20,A9M,1.9
21,A9N,2.49
22,A9P,1.57
23,A9Q,2.46
24,A9R,2.29

row,Variant,protein stability index
1,A9S,2.23
2,A9T,2.44
3,A9V,2.25
4,A9W,2.52
5,A9Y,1.5
6,L10A,2.99
7,L10C,2.69
8,L10D,3.99
9,L10E,3.65
10,L10F,2.15
11,L10G,2.93
12,L10H,2.88
13,L10I,2.12
14,L10K,3.29
15,L10M,2.69
16,L10N,3.73
17,L10P,3.58
18,L10Q,2.95
19,L10R,3.23
20,L10S,2.64
21,L10T,3.57
22,L10V,2.88
23,L10Y,1.86
24,A11C,2.35

row,Variant,protein stability index
1,A11D,2.99
2,A11E,2.63
3,A11F,2.4
4,A11G,2.22
5,A11H,2.23
6,A11I,2.24
7,A11K,2.29
8,A11L,2.18
9,A11M,2.86
10,A11N,2.78
11,A11P,2.17
12,A11Q,3
13,A11R,1.58
14,A11S,2.45
15,A11T,2.51
16,A11V,1.76
17,A11Y,1.46
18,C12A,2.87
19,C12D,2.95
20,C12E,3.13
21,C12F,1.7
22,C12G,2.41
23,C12H,3.16
24,C12I,2.3

row,Variant,protein stability index
1,C12K,2.95
2,C12L,2.33
3,C12M,2.77
4,C12N,2.77
5,C12Q,2.36
6,C12R,2.5
7,C12S,2.87
8,C12T,2.76
9,C12V,2.19
10,C12W,1.88
11,C12Y,1.88
12,T13A,2.28
13,T13C,1.96
14,T13D,2.81
15,T13E,2.7
16,T13F,2.39
17,T13G,1.85
18,T13H,1.85
19,T13I,2.18
20,T13K,2.46
21,T13L,1.83
22,T13M,2.15
23,T13N,2.9
24,T13P,1.88

row,Variant,protein stability index
1,T13Q,2.19
2,T13R,2.33
3,T13S,2.44
4,T13V,1.79
5,T13W,3.59
6,T13Y,1.86
7,L14A,2.68
8,L14C,1.77
9,L14D,2.84
10,L14E,2.76
11,L14F,2.25
12,L14G,2.66
13,L14H,2.19
14,L14I,2.15
15,L14K,2.55
16,L14M,2.77
17,L14N,2.32
18,L14Q,2.25
19,L14R,2.32
20,L14S,2.86
21,L14T,2.54
22,L14V,2.11
23,L14W,1.51
24,L14Y,1.86

row,Variant,protein stability index
1,P15A,1.5
2,P15C,2.19
3,P15D,1.53
4,P15E,2.29
5,P15F,3.49
6,P15G,1.61
7,P15H,1.67
8,P15I,3.1
9,P15K,1.86
10,P15L,1.8
11,P15M,1.86
12,P15N,1.85
13,P15Q,1.89
14,P15R,1.61
15,P15S,1.95
16,P15T,1.59
17,P15V,1.99
18,P15W,3.34
19,P15Y,2.87
20,T16A,2
21,T16C,2.02
22,T16D,2.45
23,T16E,2.4
24,T16F,2.38

row,Variant,protein stability index
1,T16G,1.88
2,T16H,2.2
3,T16I,1.66
4,T16K,2.33
5,T16L,1.73
6,T16M,1.76
7,T16N,2.06
8,T16P,2.05
9,T16Q,2.2
10,T16R,1.97
11,T16S,2.41
12,T16V,2.08
13,T16W,3.26
14,T16Y,2.45
15,L17A,2.39
16,L17C,2.14
17,L17D,2.76
18,L17E,2.64
19,L17F,2
20,L17G,2.59
21,L17H,2.09
22,L17I,1.88
23,L17K,2.54
24,L17M,2.24

row,Variant,protein stability index
1,L17N,2.27
2,L17P,2.6
3,L17Q,3.03
4,L17R,2.2
5,L17S,2.16
6,L17T,2.43
7,L17V,2.29
8,L17W,1.88
9,L17Y,1.54
10,P18A,2.98
11,P18C,1.52
12,P18D,2.71
13,P18E,2.23
14,P18F,2.02
15,P18G,2.12
16,P18H,2.26
17,P18I,3.81
18,P18K,2.15
19,P18L,1.65
20,P18M,1.75
21,P18N,2.24
22,P18Q,2.02
23,P18R,1.61
24,P18S,1.65

row,Variant,protein stability index
1,P18T,2.03
2,P18V,1.55
3,P18W,2.77
4,P18Y,2.42
5,A19C,1.74
6,A19D,2.6
7,A19E,2.56
8,A19F,2.35
9,A19G,2.58
10,A19H,2.17
11,A19I,1.87
12,A19K,2.38
13,A19L,1.41
14,A19M,1.55
15,A19N,2.31
16,A19P,2.46
17,A19Q,1.91
18,A19R,2.47
19,A19S,2.14
20,A19T,2.05
21,A19V,2.76
22,A19W,1.26
23,A19Y,1.95
24,K20A,2.01

row,Variant,protein stability index
1,K20C,2.48
2,K20D,2.64
3,K20E,2.13
4,K20F,2.48
5,K20G,2.38
6,K20H,2.19
7,K20I,2.76
8,K20M,1.64
9,K20N,2.49
10,K20P,2.35
11,K20Q,2.08
12,K20R,2
13,K20S,2.31
14,K20T,1.98
15,K20V,1.81
16,K20W,2.15
17,K20Y,2.58
18,V21A,2.71
19,V21C,2.58
20,V21D,3.28
21,V21E,3.17
22,V21F,2
23,V21G,2.56
24,V21H,2.44

row,Variant,protein stability index
1,V21I,1.91
2,V21K,3.09
3,V21L,1.91
4,V21M,1.8
5,V21N,3.32
6,V21P,2.73
7,V21Q,2.81
8,V21R,3.29
9,V21S,2.61
10,V21T,3.05
11,V21W,2.63
12,V21Y,2.1
13,Y22A,2.71
14,Y22C,2.63
15,Y22D,2.83
16,Y22E,2.85
17,Y22F,2.67
18,Y22G,3.11
19,Y22H,2.87
20,Y22I,2.36
21,Y22K,2.95
22,Y22L,2.12
